The Kd is the concentration at which binding is half-saturated. A lower Kd goes with tighter binding.

In assay [1] the target is T1, human plexin A1 protein sema domain (from glutamic acid at position 28 to serine at position 514) tagged at … (human, UniProt Q9UIW2 28-514).
T1 construct: also called human plexin A1 sema domain
T1 sequence: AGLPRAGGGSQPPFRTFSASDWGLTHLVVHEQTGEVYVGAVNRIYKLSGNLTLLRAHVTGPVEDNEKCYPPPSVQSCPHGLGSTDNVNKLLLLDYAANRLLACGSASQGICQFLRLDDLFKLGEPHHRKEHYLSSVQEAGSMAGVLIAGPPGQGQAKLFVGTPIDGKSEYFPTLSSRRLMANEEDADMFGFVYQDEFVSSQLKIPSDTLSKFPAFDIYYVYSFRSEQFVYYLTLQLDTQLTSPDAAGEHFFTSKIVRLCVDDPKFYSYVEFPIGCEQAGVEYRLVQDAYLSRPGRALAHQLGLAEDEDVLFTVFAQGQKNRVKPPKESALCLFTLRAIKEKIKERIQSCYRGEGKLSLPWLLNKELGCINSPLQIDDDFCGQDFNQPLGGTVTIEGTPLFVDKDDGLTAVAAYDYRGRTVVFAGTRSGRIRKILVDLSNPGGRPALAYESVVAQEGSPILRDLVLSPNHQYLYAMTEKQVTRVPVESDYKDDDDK
In words: SPR, Biacore T200; the parent antibody itself (control). As to the method: (§1) Each antibody obtained in the paragraph (10-1) was evaluated for its binding activity against the antigen by surface plasmon resonance (SPR) analysis.
(§2) In the SPR analysis, the antibody was analyzed using Biacore T200 (GE Healthcare Japan Corp.). The anti-human plexin A1 antibody was immobilized onto the surface of Sensor Chip CM4 using Recombinant Protein A/G (Thermo Fisher Scientific Inc.) and Amine Coupling Kit (GE Healthcare Japan Corp.). The antigen used was a human plexin A1 protein sema domain (from glutamic acid at position 28 to serine at position 514) tagged at the C terminus of the protein with FLAG tag. The antigen was prepared as follows: an expression vector carrying a cDNA corresponding to the human plexin A1 sema domain was transferred to FreeStyle 293 cells. After culture, the obtained culture solution was passed through an anti-FLAG-M2 antibody-immobilized affinity column. A fraction eluted with the FALG peptide was purified by gel filtration. The obtained antigen was serially diluted with 20 mM ACES, 150 mM NaCl, 0.05% polysorbate 20, and 1.2 mM CaCl₂ (pH 7.4) and added to the sensor chip at a flow rate of 30 μL/min. In this assay system, the dissociation constant (KD) between the human plexin A1 protein and the anti-human plexin A1 antibody was calculated using data analysis software (BIA T200 Evaluation software ver. 2).

Assay [2] concerns the target T1, human plexin A1 protein sema domain …. In words: SPR, Biacore T200; antibody held by Protein A/G on CM4 chip, sema domain as analyte. As to the method: as §1, §2
Background: Surface plasmon resonance follows binding to a sensor surface in real time, without labels.

Assay [3] has the same target. Nature of the assay: SPR, Biacore T200; KD against parent antibody hPANLB2-3_359. As to the method: as §1, §2
The target of assay [4] is T2, biotinylated human IL-6R (shIL6R-Avitag) (human, UniProt P08887 20-357, biotinylated at the C-terminal AviTag sequence by biotin ligase (BirA)).
T2 construct: It was captured on a StreptaWell plate in the phage ELISA; its preparation is described in (3-3); also called biotinylated hIL-6R
T2 sequence: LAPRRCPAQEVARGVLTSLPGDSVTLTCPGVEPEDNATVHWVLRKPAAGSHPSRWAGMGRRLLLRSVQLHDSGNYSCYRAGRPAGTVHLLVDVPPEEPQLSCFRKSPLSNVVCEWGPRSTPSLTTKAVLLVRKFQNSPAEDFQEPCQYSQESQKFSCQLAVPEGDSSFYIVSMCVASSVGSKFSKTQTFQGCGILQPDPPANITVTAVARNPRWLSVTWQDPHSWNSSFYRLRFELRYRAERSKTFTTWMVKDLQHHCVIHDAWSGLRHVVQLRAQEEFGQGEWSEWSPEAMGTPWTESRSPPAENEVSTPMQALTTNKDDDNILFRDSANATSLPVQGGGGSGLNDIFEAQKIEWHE
In words: phage ELISA, plate coated with biotinylated human IL-6R, detection with HRP anti-M13 antibody, absorbance at 450 nm. As to the method:
The phage ELISA method was carried out to confirm Fab display on the produced phage and to confirm the ability to bind to the antigen. StreptaWell 96-well microtiter plate (F. Hoffmann-La Roche, Ltd.) was coated by the addition of 100 μL of PBS containing Goat anti-Human Kappa Biotin antibody (EY Laboratories, Inc.) or biotinylated human IL-6R. Each well of the plate was washed with 0.1×TBST (0.1×TBS containing 0.1% Tween 20) to remove the antigen. Then, the plate was blocked for 1 hour or longer by the addition of 250 μL of 0.02% skim milk-0.1×TBS (0.1×TBS containing 0.02% skim milk) to the well. […] After washing with 0.1×TBST, an HRP-conjugated anti-M13 antibody (Amersham Pharmacia Biotech) diluted with 0.1×TBST was added to each well, and the plate was incubated for 1 hour. After washing with 0.1×TBST, TMB single solution (Zymed Laboratories Inc.) was added to each well. The color reaction of the solution was further terminated by the addition of sulfuric acid. Then, the absorbance was measured at 450 nm.
(In general: In an ELISA, binding on a coated surface is turned into a signal by an enzyme label.)

The target in assay [5] is T1, human plexin A1 protein sema domain …. Nature of the assay: SPR, Biacore T200; KD against parent antibody hPANLB2-3_264. As to the method: as §1, §2

B1: hPANLB2-3_359 (antibody, human IgG1, lambda, V domains shown)
VH: QVQLVQSGAEVKKPGASVKVSCKASGYTFTSYYMHWVRQAPGQGLEWMGIINPSGGSTSYAQKFQGRVTMTRDTSTSTVYMELSSLRSEDTAVYYCARAPGHYYYGMDVWGQGTTVTVSS
VL: SYELTQPPSVSVSPGQTASITCSGDKVGEKYASWYQQRPGQSPVLVIYQDTKRPSGIPERFSGSNSGNTATLTISGTQAIDDADYYCQAWDNSAYVIFGGGTKLTVLG
notes: Parent anti-plexin A1 antibody, IgG
As to B1, the “Relative KD improvement” value in assay [1] came to 1 fold. The molecule further gave a Kd in assay [2] of 13.5 nM.

B2: PLR2H359#062 (antibody, human IgG1, lambda, V domains shown)
VH: QVQLVQSGAEVKKPGASVKVSCKASGYTFTSYYMHWVRQAPGQGLEWMGIINPSGGSTSYAQKFQGRVTMTRDTSTSTVYMELSSLRSEDTAVYYCARAPGHYYYGMDVWGQGTTVTVSS
VL: SYELTQPPSLSVSPGQTASITCSGDKLGEKYACWYQQKPGQSPALVIYQDTKRPSGIPERFSGSNSGNTATLTISGTQAMDEADYSCQAWDTNTGEVVFGGGTKLTVLG
notes: IgG from the 359H-NL library
As to B2, the “Relative KD improvement” value in assay [3] was 3.4 fold. In assay [2], this molecule had a Kd of 3.93 nM.

B3: hPANLB2-3_342 (antibody, human IgG1, lambda, V domains shown)
VH: EVQLVQSGAEVKKPGASVKVSCKASGYTFTSYGISWVRQAPGQGLEWMGWISAYNGNTNYAQKLQGRVTMTTDTSTSTAYMELRSLRSDDTAVYYCARHAGYYYGMDVWGKGTMVTVSS
VL: SYELTQPPSVSVSPGQTASITCSGDKLGEKYASWYQQKPGQSPVLVIYQDSKRPSGIPERFSGSNSGNMATLTISGTQAVDEADYYCQTWDSNTAFVFGTGTKVTVLG
notes: as for B1
For B3, the “Relative KD improvement” value in assay [1] came out at 1 fold. Further, binding in assay [2] was characterised by a dissociation constant (Kd) of 34.5 nM.

B4: PLR2H359#087 (antibody, human IgG1, lambda, V domains shown)
VH: QVQLVQSGAEVKKPGASVKVSCKASGYTFTSYYMHWVRQAPGQGLEWMGIINPSGGSTSYAQKFQGRVTMTRDTSTSTVYMELSSLRSEDTAVYYCARAPGHYYYGMDVWGQGTTVTVSS
VL: SSELTQPPSMSVSPGQTASISCSGDRLGEKYASWYQQKPGQSPVLVIYQDNKRPSGIPERFSGSNSGNTATLTISGTQAIDEADYYCQAWDSNSAYVFGTGTKVTVLG
notes: IgG from the 359H-NL library
For B4, in assay [3], the “Relative KD improvement” value amounted to 2.9 fold. For the same molecule, the Kd in assay [2] was 4.62 nM.

B5: phage produced by the H chain (PF1H)-expressing phagemid vector and the negative control helper phage M13KO7TC (other)
heavy: QVQLQESGPGLVKPSETLSLTCAVSGYSISDDHAWSWVRQPPGEGLEWIGYISYSGITNYNPSLKGRVTISRDTSKNQFSLKLSSVTAADTAAYYCARVLARITAMDYWGEGTLVTVSSASTKGPSVFPLAPSSKSTSGGTAALGCLVKDYFPEPVTVSWNSGALTSGVHTFPAVLQSSGLYSLSSVVTVPSSSLGTQTYICNVNHKPSNTKVDKK
notes: Control phage without an L chain; not shown: linker peptide and gene 3 protein (g3p)
As for B5, the binding result in assay [4] is listed as “no binding”.

B6: hPANLB2-3_264 (antibody, human IgG1, lambda, V domains shown)
VH: QVQLQQSGPGLVKPSQTLSLTCAISGDSVSSNSAAWNWIRQSPSRGLEWLGRTYYRSKWYNDYAVSVKSRITINPDTSKNQFSLQLNSVTPEDTAVYYCARDRGYSYGFDYWGQGTLVTVSS
VL: SYLLTQPPSVSVSPGQTASITCSGDKLGQKFVSWYQQRPGQSPVLVIYQDTKRPSGIPERFSGSNSGNTATLTISGTQAMDEADYYCQAWDSSTAGVFGGGTNLTVLG
notes: as for B1
Regarding B6, the “Relative KD improvement” value in assay [1] worked out at 1 fold. Besides, in assay [2], binding was put at a Kd of 173 nM.

B7: PLR3H264#022 (antibody, human IgG1, lambda, V domains shown)
VH: QVQLQQSGPGLVKPSQTLSLTCAISGDSVSSNSAAWNWIRQSPSRGLEWLGRTYYRSKWYNDYAVSVKSRITINPDTSKNQFSLQLNSVTPEDTAVYYCARDRGYSYGFDYWGQGTLVTVSS
VL: SYVLTQPRSVSVSPGQTTRITCSGQNLGEKYISWYRQKPGQSPEVLIYEDKRRPSGIPERISGANSGGTATLTISGTQAMDEADYFCQAWVSSTEGVFGGGTRLTVLR
notes: IgG from the 264H-NL library
Take B7: the “Relative KD improvement” value in assay [5] stood at 3 fold. The Kd in assay [2] came to 56.9 nM.

B8: PLR4H264#061 (antibody, human IgG1, lambda, V domains shown)
VH: QVQLQQSGPGLVKPSQTLSLTCAISGDSVSSNSAAWNWIRQSPSRGLEWLGRTYYRSKWYNDYAVSVKSRITINPDTSKNQFSLQLNSVTPEDTAVYYCARDRGYSYGFDYWGQGTLVTVSS
VL: SYELTQPPSVAVSPGQTASITCSGHKLGEKYASWYQQKPGQSPVLVIYQDTKRPSGIPERFSGSNSGNTATLTISGTQAMDEADYYCQAWDSSSVCVFGTGTKVTVLG
notes: IgG from the 264H-NL library
With B8, the “Relative KD improvement” value in assay [5] worked out at 4.2 fold. In assay [2], this molecule returned a Kd of 41 nM.

B9: PLR2H264#002 (antibody, human IgG1, lambda, V domains shown)
VH: QVQLQQSGPGLVKPSQTLSLTCAISGDSVSSNSAAWNWIRQSPSRGLEWLGRTYYRSKWYNDYAVSVKSRITINPDTSKNQFSLQLNSVTPEDTAVYYCARDRGYSYGFDYWGQGTLVTVSS
VL: SYELTQPPSVSVSPGQTASITCSGDKLGNKYVSWYQRRPGQSPVLVIYQDSKRPSGIPERFSGSNSGNTATLTISGTQSMDEADYYCQAWYSSSVGVFGGGTRLTVLG
notes: IgG from the 264H-NL library
Consider B9, for which, in assay [5], the “Relative KD improvement” value came out at 1.3 fold. Further, the Kd in assay [2] came to 138 nM.

B10: PF1 Fab displayed on phage (PF1 H chain Fd-g3p fusion with PF1 L chain) (Fab, V domains shown)
VH: QVQLQESGPGLVKPSETLSLTCAVSGYSISDDHAWSWVRQPPGEGLEWIGYISYSGITNYNPSLKGRVTISRDTSKNQFSLKLSSVTAADTAAYYCARVLARITAMDYWGEGTLVTVSS
VL: DIQMTQSPSSLSASVGDSVTITCQASQDISSYLNWYQQKPGKAPELLIYYGSELHSGVPSRFSGSGSGTDFTFTISSLEAEDAATYYCGQGNRLPYTFGQGTKVEIER
notes: also called Fab-displaying phage; phage produced with M13KO7TC-PF1L; not shown: linker peptide and gene 3 protein (g3p) fused to the C terminus of the Fd
For the molecule B10, in assay [4], the binding result is recorded as “binds”.
